Reference: US20220348923, “CA-IX APTAMERS AND DIAGNOSTIC AND THERAPEUTIC USES THEREOF” (BRACCO IMAGING S.P.A., published 2022)

Target: Carbonic Anhydrase IX (CA-IX) (Homo sapiens, UniProt Q16790 Q16790:38-414)
Experiment: RT-qPCR cell binding, 100 nM, 15 min, 37 C, acid condition

Binder | binding signal [fold over COS7-WT]
UCGAAUGAACCAAGGUUCCUCGGC (ssRNA, 2'-F pyrimidines) [SAM-2.T1] | 2.4
UUCGUGCCGCUGAGUGCGUACGGGC (ssRNA, 2'-F pyrimidines) [SAM-1.T1] | 1.3
